Experimental data published in patent US20210061908A1 (IOMX THERAPEUTICS, published 2021).

T1: extracellular domain (ECD) of murine IGSF11, biotinylated (mouse, UniProt P0C673 23-240, biotinylated (site not stated))
T1 construct: also called Mouse IGSF11; murine IGSF11 protein
T1 sequence: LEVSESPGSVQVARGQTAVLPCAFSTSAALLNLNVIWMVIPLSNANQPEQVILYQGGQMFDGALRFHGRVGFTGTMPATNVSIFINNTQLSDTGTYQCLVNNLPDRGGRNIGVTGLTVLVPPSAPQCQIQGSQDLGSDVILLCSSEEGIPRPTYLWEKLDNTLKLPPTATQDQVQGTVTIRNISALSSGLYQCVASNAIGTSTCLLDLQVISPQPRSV

T2: extracellular domain (ECD) of human IGSF11 (VSIG3), biotinylated (human, UniProt Q5DX21 23-241, biotinylated (site not stated))
T2 construct: also called human IGSF11 protein
T2 sequence: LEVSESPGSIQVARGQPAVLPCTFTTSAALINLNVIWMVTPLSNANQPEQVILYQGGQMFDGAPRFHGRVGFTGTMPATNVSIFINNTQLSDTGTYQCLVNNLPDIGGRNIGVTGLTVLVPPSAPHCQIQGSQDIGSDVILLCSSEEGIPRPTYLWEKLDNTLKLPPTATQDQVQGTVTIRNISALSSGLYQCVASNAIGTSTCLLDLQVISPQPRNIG

B1: A-010 (scFv format) (scFv, V domains shown)
VH: QVQLVQSGAEVKKPGASVKVSCKASGYTFTSYGISWVRQAPGQGLEWMGWISAYNGNTNYAQKLQGRVTMTTDTSTSTAYMELRSLRSDDTAVYYCARVPAWSGQFDYWGQGTLVTVSS
VL: QSALTQPASVSGSPGQSITISCTGSSSDVGGYNYVSWYQQYPGKAPKLMIYDVRSRPSGVSNRFSGSKSGNTASLTISGLQAEDEADYYCTSYTSSNTLVIFGGGTKVTVL
notes: scFv
B2: A-033 (scFv format) (scFv, V domains shown)
VH: QVQLVQSGAEVKKPGASVKVSCKASGYTFTSYGISWVRQAPGQGLEWMGWISAYNGNTNYAQKLQGRVTMTTDTSTSTAYMELRSLRSDDTAVYYCARDHSIVGATTFDYWGQGTLVTVSS
VL: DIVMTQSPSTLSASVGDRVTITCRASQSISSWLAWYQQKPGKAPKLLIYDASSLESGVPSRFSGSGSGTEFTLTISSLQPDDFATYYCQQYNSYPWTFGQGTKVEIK
notes: scFv
B3: A-004 (scFv format) (scFv, V domains shown)
VH: EVQLVESGGGLVKPGGSLRLSCAASGFTFSSYSMNWVRQAPGKGLEWVSSISSSSSYIYYADSVKGRFTISRDNAKNSLYLQMNSLRAEDTAVYYCARGQLLWFGESALIDAFDIWGQGTMVTVSS
VL: EIVLTQSPSSLSASVGDRVTITCRASQSISSYLNWYQLKPGKAPKLLIYAASILQSGVPSRFSGSGSGTDFTLTISSLQPEDFAAYYCQQSYSTPRTFGQGTKLEIK
notes: scFv
B4: A-034 (scFv format) (scFv, V domains shown)
VH: QMQLVQSGGGLVKPGGSLRLSCAASGFTFSSYTMNWVRQAPGKGLEWVSSISSIGTYIYYADSVKGRFTISRDNAKNSLYLQMNSLRAEDTAVYYCARVLLSGSYYGYFDSWGQGTLVTVSS
VL: QSVLTQPPSVSGAPGQRVTISCTGSSSNIGAGYDVHWYQQLPGTAPKLFIYGNSNRPSGVPDRFSGSKSGTSASLAITGLQAEDEADYYCQSYDSSLSGYVFGTGTKVTVL
notes: scFv
B5: A-032 (scFv format) (scFv, V domains shown)
VH: QVQLVQSGAEVKKPGASVKVSCKASGYTFTGYYMHWVRQAPGQGLEWMGWMNPNSGNTGYAQKFQGRVTMTRNTSISTAYMELSSLRSEDTAVYYCARGGQQQLVLDDYWGQGTLVTVSS
VL: not shown
B6: A-030 (scFv format) (scFv, V domains shown)
VH: QVQLVQSGAEVKKPGASVKVSCKASGYTFTGYYMHWVRQAPGQGLEWMGWINPNSGNTGYAQKFQGRVTMTRNTSISTAYMELSSLRSEDTAVYYCARGGQQQLVLDDYWGQGTLVTVSS
VL: DIQLTQSPSTLSASVGDRVTITCRASQSIGGWLAWYQHKPGKAPKLLIYAASSLQSGVPSRFSGSGSGTDFTLTISSLQPEDFATYYCRQSYSTPPTFGQGTKVEIK
notes: scFv
B7: A-037 (scFv format) (scFv, V domains shown)
VH: QVQLVQSGAEVKKPGASVKVSCKASGYTFTGYYMHWVRQAPGQGLEWMGWINPNSGNTGYAQKFQGRVTMTRNTSISTAYMELSSLRSEDTAVYYCARGGQQQLVLDDYWGQGTLVTVSS
VL: NFMLTQPHSVSESPGKTVTISCTGSSGSIASNYVQWYQQRPGSAPTTVIYEDNQRPSGVPDRFSGSIDSSSNSASLTISGLKTEDEADYYCQSYDSSNQRVFGGGTKLTVL
notes: scFv
B8: A-036 (scFv format) (scFv, V domains shown)
VH: QVQLVQSGAEVKKPGASVKVSCKASGYTFTGYYMHWVRQAPGQGLEWMGWINPNSGGTNYAQKFQGRVTMTRNTSISTAYMELSSLRSEDTAVYYCARGGQQQLVLDDYWGQGTLVTVSS
VL: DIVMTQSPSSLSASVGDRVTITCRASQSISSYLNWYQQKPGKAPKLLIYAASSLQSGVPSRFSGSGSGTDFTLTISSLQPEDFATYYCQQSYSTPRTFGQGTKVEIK
notes: scFv
B9: A-008 (scFv format) (scFv, V domains shown)
VH: QLQLQESGPGLVKPSETLSLTCTVSGGSISSSGYYWGWIRQPPGKGLEWIGSIYYSGSTYYNPSLKSRVTISVDTSKNQFSLKLSSVTAADTAVYYCARHRVRFGEFDAFDIWGQGTMVTVSS
VL: QAVLTQPPSVSGAPGERVTLSCTGTSSNVGADFDVHWYQQFPGTAPRLLIFGSDNRPSGVPDRFSGSKSGTSASLAITGLQVEDEADYYCQAYDVRLSGWVFGGGTKLTVL
notes: scFv
B10: A-012 (scFv format) (scFv, V domains shown)
VH: EVQLLESGGGLIQPGGSLRLSCAVSGFTVSSNYMSWVRQAPGKGLEWVSVIYSGGSTYYADSVKGRFTISRDNSKNTLYLQMNSLRAEDTAVYYCARGNPYYYGDLQVNFDYWGQGTLVTVSS
VL: QAVVTQEPSLTVSPGGTVTLTCASSTGAVTSGYYPNWFQQKPGQAPRALIYSTSNKHSWTPARFSGSLLGGKAALTLSGVQPEDEAEYYCLLYYGGAWVFGGGTKLTVL
notes: scFv
B11: A-002 (scFv format) (scFv, V domains shown)
VH: EVQLVESGGGLIQPGGSLRLSCAASGFTVSSNYMSWVRQAPGKGLEWVSVIYSGGSTYYADSVKGRFTISRDNSKNTLYLQMNSLRAEDTAVYYCARGNPYYYGDLQVNFDYWGQGTLVTVSS
VL: QAVVTQEPSLTVSPGGTVTPTCGSSTGAVTSGNLPNWFQQKPGQAPRALIYSTSNKHSWTPARISGSLLGGKAALTLSGVQPEDEAEYYCLLYYGGAWVFGGGTKLTVL
notes: scFv
B12: A-013 (scFv format) (scFv, V domains shown)
VH: EVQLVESGGGLIQPGGSLRLSCAASGFTVSSNYMSWVRQAPGKGLEWVSVIYSGGSTYYADSVKGRFTISRDNSKNTLYLQMNSLRAEDTAVYYCARGNPYYYGDLQVNFDYWGQGTLVTVSS
VL: QAVVTQEPSLTVSPGGTVTLTCASSTGAVTSAYYPNWFQQKPGQAPRALIYSTSNKHSWTPARFSGSLLGGKAALTLSGVQPEDEADYYCLLYYGGAWVFGGGTKLTVL
notes: scFv
B13: A-005 (scFv format) (scFv, V domains shown)
VH: EVQLVESGGGLIQPGGSLRLSCAASGFTVSSNYMSWVRQAPGKGLEWVSVIYSGGSTYYADSVKGRFTISRDNSKNTLYLQMNSLRAEDTAVYYCARGNPYYYGDLQVNFDYWGQGTLVTVSS
VL: QAVVTQEPSLTVSPGETVTLTCASSTGAVTSGYYPNWFQQRPGQAPRALIYSTSNKDSWTPARFSGSLLGGKAALTLSGVQPEDEAEYYCLLYYGGAWVFGGGTKLTVL
notes: scFv
B14: A-006 (scFv format) (scFv, V domains shown)
VH: EVQLVESGGGLIQPGGSLRLSCAASGFTVSSNYMSWVRQAPGKGLEWVSVIYSGGSTYYADSVKGRFTISRDNSKNTLYLQMNSLRAEDTAVYYCARGNPYYYGDLQVNFDYWGQGTLVTVSS
VL: QAVVTQEPSLTVSPGGTVTLTCASSTGAVTSGYYPNWFQQKPGQAPRPLIYSTSNKHSWTPARFSGSLLGGKAALTLSGVQPDDEAEYYCLLYYGGDWVFGGGTKLTVL
notes: scFv
B15: A-001 (scFv format) (scFv, V domains shown)
VH: EVQLVESGGGLVKPGGSLRLSCAASGFTFSSYSMNWVRQAPGKGLEWVSSISSSSSYIYYADSVKGRFTISRDNAKNSLYLQMNSLRAEDTAVYYCVRSIIVQALGITSVFDIWGQGTMVTVSS
VL: AIRLTQSPSSLSASVGDRVTISCRASQIISNHLNWYQQKPGKAPKLLIYAASRLQTGVPSRFSGSGSETDYTLTISSLQPEDFATYYCQQSYSNPRTFGHGTKVEIK
notes: scFv
B16: A-009 (scFv format) (scFv, V domains shown)
VH: QVQLVQSGAEVKKPGSSVKVSCKASGGTFSSYAISWVRQAPGQGLEWMGGIIPIFGTANYAQKFQGRVTITADESTSTAYMELSSLRSEDTAVYYCARGRGFGELYFDYWGQGTLVTVSS
VL: ETTLTQSPATLSVSPGERATLSCRASQGVRSNIAWYQQKPGQAPRLLIYDSSTRATGIPARFSGSGSGTEFTLTISSLQSEDFAVYSCQQYKNWPRTFGQGTKVEIK
notes: scFv
B17: A-035 (scFv format) (scFv, V domains shown)
VH: QVQLVQSGAEVKKPGASVKVSCKASGYTFTGYYMHWVRQAPGQGLEWMGWINPNSGNTGYAQKFQGRVTMTRNTSISTAYMELSSLRSEDTAVYYCARGRLERGYWYFDLWGRGTLVTVSS
VL: NFMLTQPHSVSESPGRTVTISCTRSSGSITSNYVQWYQQRPGSAPTILIYEDKERPSEVPDRFSGSIDISSNSASLTISGLKTEDEADYYCQSYGGTSQGVLFGGGTKVTVL
notes: scFv
B18: A-031 (scFv format) (scFv, V domains shown)
VH: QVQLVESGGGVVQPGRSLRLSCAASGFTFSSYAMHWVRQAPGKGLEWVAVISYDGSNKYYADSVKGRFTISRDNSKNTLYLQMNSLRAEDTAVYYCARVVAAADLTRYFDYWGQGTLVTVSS
VL: EIVLTQSPGTVSLSPGERATLSCRASQSVPKNYLAWFQQKPGQAPRLVIHTASSRAPGIPDRFTGSGSGTDFTLTISRLEPEDFAVYYCQQYGTSPNTFGQGTKLDIK
notes: scFv
B19: A-007 (scFv format) (scFv, V domains shown)
VH: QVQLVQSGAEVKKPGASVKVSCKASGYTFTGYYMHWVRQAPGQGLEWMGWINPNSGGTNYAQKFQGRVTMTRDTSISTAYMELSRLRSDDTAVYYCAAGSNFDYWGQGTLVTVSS
VL: QSALTQPASVSGSPGQSITIACTGSSSDIGSFSYVSWYQQRPGKAPTLIIYGVNNRPLGVSRRFSGSKSGNTASLSISGLQAEDEADYYCSSYTRRSTVIFGGGTKLTVL
notes: scFv

Key:
[1] = target: T1, extracellular domain (ECD) of murine …; experiment: ELISA, scFv; RFU grade (*** >1.0, ** 0.5-1.0, * 0.1-0.5)
[2] = target: T2, extracellular domain (ECD) of human …; experiment: as above

relative fluorescent units (RFU), ELISA [1] [rfu]	relative fluorescent units (RFU), ELISA [2] [rfu]	Binder
0.5 to 1	0.5 to 1	B1
0.1 to 0.5	0.1 to 0.5	B2
> 1	0.5 to 1	B3
0.5 to 1	> 1	B4
0.1 to 0.5	0.1 to 0.5	B5
0.1 to 0.5	0.1 to 0.5	B6
0.1 to 0.5	0.1 to 0.5	B7
0.1 to 0.5	0.1 to 0.5	B8
> 1	> 1	B9
0.5 to 1	0.5 to 1	B10
0.1 to 0.5	0.5 to 1	B11
0.5 to 1	0.5 to 1	B12
0.1 to 0.5	0.5 to 1	B13
0.5 to 1	0.5 to 1	B14
> 1	> 1	B15
0.1 to 0.5	0.5 to 1	B16
> 1	0.5 to 1	B17
0.1 to 0.5	0.1 to 0.5	B18
0.5 to 1	0.5 to 1	B19
